This is an account of results in article PMC4136701, “A Conserved Cysteine Residue of Bacillus subtilis SpoIIIJ Is Important for Endospore Development” (PLoS ONE, 2014).

B1: truncated SpoIIIJ-His6 starting at L122 (fragment "c", lacking TM1) (domain or fragment, Bacillus subtilis, UniProt Q01625 122-261, looked up)
chain: LFQKHGVNPLAGCFPILIQMPILIGFYHAIMRTQAISEHSFLWFDLGEKDPYYILPIVAGVATFVQQKLMMAGNAQQNPQMAMMLWIMPIMIIVFAINFPAALSLYWVVGNLFMIAQTFLIKGPDIKKNPEPQKAGGKKK
notes: SpoIIIJ, Bacillus subtilis; about 16 kDa product of cleavage at L122 in the cytoplasmic loop between TM1 and TM2: the rest of that loop to the end of the protein (includes TM2 with Cys134); Two species of about 15 kDa both start at L122; The cause of their different mobility is not known; also called band c; truncated SpoIIIJ monomer (lacking TM1); source: E. coli C43(DE3), proteolytic product …
B2: SpoIIIJ-His6 (natural protein, Bacillus subtilis, UniProt Q01625 23-261, looked up)
chain: CSSVKEPITADSPHFWDKYVVYPLSELITYVAKLTGDNYGLSIILVTILIRLLILPLMIKQLRSSKAMQALQPEMQKLKEKYSSKDQKTQQKLQQETMALFQKHGVNPLAGCFPILIQMPILIGFYHAIMRTQAISEHSFLWFDLGEKDPYYILPIVAGVATFVQQKLMMAGNAQQNPQMAMMLWIMPIMIIVFAINFPAALSLYWVVGNLFMIAQTFLIKGPDIKKNPEPQKAGGKKK
modifications: Cys23 of the lipoprotein-type signal peptide is modified during insertion of the protein into the membrane
notes: SpoIIIJ, membrane protein insertase of the YidC/Oxa1/Alb3 family, Bacillus subtilis; calculated mass 27 kDa; Purified protein is a mixture of monomers and dimers; it also holds proteolytic products starting at L122; also called full-length mature SpoIIIJ-His6; SpoIIIJ^wt-His6; source: E. coli C43(DE3) bearing pMS266, membrane fraction solubilised with 2% DDM, purified (Ni2+-NTA); not shown: His6, …

The target of data set [1] is SpoIIIJ^C134A-His6 (Bacillus subtilis) (UniProt Q01625). The experiment in a line: SEC; Superose 12 HR 10/30; 20 mM Tris-HCl pH 7.6, 10% glycerol, 0.5 M NaCl, 0.1% DDM, 100 mM imidazole; fractions immunoblotted; peak areas estimated with ImageJ.
In the data set “SpoIIIJ-His6” the target is B2. The experiment in a line: SDS-PAGE with or without reducing agent; purified protein in loading buffer with (100 mM) or without DTT; Coomassie staining or immunoblot with anti-His6; bands a and b cut out and run again. The conditions noted are these: both partners purified. A general note: A western blot detects proteins with antibodies after separation by electrophoresis.

Data set [2] deals with the molecule itself. The description is as above.
Data set [3] concerns the molecule itself. The experiment in a line: SEC; Superose 12 HR 10/30; 20 mM Tris-HCl pH 7.6, 10% glycerol, 0.5 M NaCl, 0.1% DDM, 100 mM imidazole; fractions immunoblotted; peak areas estimated with ImageJ.

In the case of “SpoIIIJ^C134A-His6 (from UniProt Q01625 23-261) (natural protein)”, in data set [1], the ratio of peak areas B (monomer size) to A (dimer size) (peak B : peak A) was 0.4.
In the case of B1, the binding result with SpoIIIJ-His6 is “binds”.
Turning to B2, in data set [2], the stoichiometry N (as a rule, the number of molecules, sites or subunits per partner or assembly) turned out to be 2. Further, in data set [3], the “ratio of peak areas B (monomer size) to A (dimer size)” value was 0.111 peak B : peak A and the “stoichiometry N” value was around 2.
